Experimental data as given in patent publication US20150037348A1 (AbbVie / Abbott, published 2015).
Values joined by “and” are separate entries in the source; they are usually repeats but may differ in a detail not shown here. Identical values can stand only once.

Experiments:
[1] = target: T1, recombinant human IL-12 (rhIL-12) (human, UniProt P29459 23-219; P29460 23-328); experiment: cell-based or functional assay
T1 sequence (looked up) 1: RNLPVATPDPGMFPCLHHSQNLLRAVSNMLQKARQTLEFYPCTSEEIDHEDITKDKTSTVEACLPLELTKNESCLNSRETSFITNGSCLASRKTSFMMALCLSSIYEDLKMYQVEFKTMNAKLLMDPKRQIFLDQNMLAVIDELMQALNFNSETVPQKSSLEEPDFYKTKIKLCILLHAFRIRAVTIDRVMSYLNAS
T1 sequence (looked up) 2: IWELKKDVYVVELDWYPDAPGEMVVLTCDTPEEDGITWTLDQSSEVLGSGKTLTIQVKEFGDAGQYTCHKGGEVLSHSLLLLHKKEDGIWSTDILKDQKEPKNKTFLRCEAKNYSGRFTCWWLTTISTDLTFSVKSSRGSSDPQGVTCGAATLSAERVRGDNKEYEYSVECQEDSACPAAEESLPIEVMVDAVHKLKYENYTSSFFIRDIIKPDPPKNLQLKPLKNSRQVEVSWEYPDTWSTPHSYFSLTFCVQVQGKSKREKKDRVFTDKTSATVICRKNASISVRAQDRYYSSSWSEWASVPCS

[2] = target: T2, dog IL-12 (PBMC supernatant) (dog, UniProt Q28267 26-222; Q28268 23-329); experiment: cell-based or functional assay
T2 sequence (looked up) 1: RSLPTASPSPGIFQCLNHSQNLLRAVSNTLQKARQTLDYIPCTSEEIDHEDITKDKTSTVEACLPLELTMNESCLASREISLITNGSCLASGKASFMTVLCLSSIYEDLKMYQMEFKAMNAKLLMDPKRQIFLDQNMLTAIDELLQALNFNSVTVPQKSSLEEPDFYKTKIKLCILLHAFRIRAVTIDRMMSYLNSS
T2 sequence (looked up) 2: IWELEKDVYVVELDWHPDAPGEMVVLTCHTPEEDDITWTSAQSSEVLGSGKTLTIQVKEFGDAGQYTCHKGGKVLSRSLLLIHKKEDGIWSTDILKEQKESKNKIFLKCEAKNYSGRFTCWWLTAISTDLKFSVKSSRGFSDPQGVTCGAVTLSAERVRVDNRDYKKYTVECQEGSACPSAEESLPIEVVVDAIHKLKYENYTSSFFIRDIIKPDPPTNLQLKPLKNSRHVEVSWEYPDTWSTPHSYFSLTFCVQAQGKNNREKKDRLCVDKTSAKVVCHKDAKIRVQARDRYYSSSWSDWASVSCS

[3] = target: T3, baboon IL-12 (PBMC supernatant) (baboon); experiment: cell-based or functional assay
T3 chain 1: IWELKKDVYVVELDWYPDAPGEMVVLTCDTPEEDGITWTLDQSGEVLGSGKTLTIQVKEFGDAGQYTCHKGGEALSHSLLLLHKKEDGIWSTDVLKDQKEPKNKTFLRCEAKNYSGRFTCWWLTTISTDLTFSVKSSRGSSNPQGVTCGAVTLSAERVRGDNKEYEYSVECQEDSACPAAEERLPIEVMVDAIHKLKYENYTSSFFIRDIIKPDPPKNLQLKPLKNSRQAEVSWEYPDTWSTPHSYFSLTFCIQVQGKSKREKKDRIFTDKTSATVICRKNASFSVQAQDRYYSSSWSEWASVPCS
T3 chain 2: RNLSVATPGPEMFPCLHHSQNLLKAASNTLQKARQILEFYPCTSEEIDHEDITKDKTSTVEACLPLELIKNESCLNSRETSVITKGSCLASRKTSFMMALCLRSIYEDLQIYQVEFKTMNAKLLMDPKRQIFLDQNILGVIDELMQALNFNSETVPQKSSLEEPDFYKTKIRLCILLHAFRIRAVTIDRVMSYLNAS

[4] = target: T1, recombinant human IL-12 (rhIL-12); experiment: cell-based or functional assay; remark: listed apart in the source
[5] = target: T1, recombinant human IL-12 (rhIL-12); experiment: biomolecular interaction assay (BIAcore)
Description: (§1) Three independent experiments were performed, and the values shown are averages for the three experiments. From these measurements, the apparent dissociation (kd) and association (kₐ) rate constants were derived and used to calculate a Kd value for the interaction (see Table 10).

[6] = target: T1, recombinant human IL-12 (rhIL-12); experiment: BIAcore, captured J695, soluble rhIL-12, average
Description: Before injection of the protein and immediately afterward, HBS buffer alone flowed through each flow cell. […] Cytokines were diluted in HBS running buffer and 50 μl aliquots were injected through the immobilized protein matrices at a flow rate of 5 μl/min. […] The net difference in baseline signal and signal after completion of cytokine injection was taken to represent the binding value of the particular sample. Biosensor matrices were regenerated using 100 mM HCl before injection of the next sample. To determine the dissociation constant (off-rate), association constant (on-rate), BIAcore kinetic evaluation software (version 2.1) was used.

[7] = target: T1, recombinant human IL-12 (rhIL-12); experiment: receptor binding assay, 125I-hIL-12 on PHA blasts
Description: PHA blast cells isolated as described above, were washed once and resuspended in binding buffer to a cell density of 2×10⁷ cells/ml. […] The cell pellet was examined for cell bound radioactivity using a gamma counter. […] Incubations were carried out in duplicate.
Incubations were carried out in duplicate.

[8] = target: T1, recombinant human IL-12 (rhIL-12); experiment: BIAcore, captured J695, soluble rhIL-12, mean of three experiments
Description: as §1

[9] = target: T4, chimeric IL-12 (murine p35 subunit with the human IL-12 p40 subunit) (mouse; human, UniProt P43431 23-215; P29460 23-328); experiment: inhibition of IFN-γ production in mice given chimeric IL-12
T4 sequence (looked up) 1: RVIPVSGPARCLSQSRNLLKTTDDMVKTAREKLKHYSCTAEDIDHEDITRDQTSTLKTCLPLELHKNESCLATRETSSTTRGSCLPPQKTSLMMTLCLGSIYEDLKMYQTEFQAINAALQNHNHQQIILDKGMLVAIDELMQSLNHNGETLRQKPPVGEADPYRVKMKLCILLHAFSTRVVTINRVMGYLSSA
T4 sequence (looked up) 2: T1 sequence (looked up) 2
Description: The control hulgG1γ was given IP. at a dose of 0.05 mg/kg on days 0, 2, and 4. The mice were bled on day 5, and serum IFN-γ levels were determined by ELISA.

B1: J695 (antibody, human IgG1, V domains shown)
VH: QVQLVESGGGVVQPGRSLRLSCAASGFTFSSYGMHWVRQAPGKGLEWVAFIRYDGSNKYYADSVKGRFTISRDNSKNTLYLQMNSLRAEDTAVYYCKTHGSHDNWGQGTMVTVSS
VL: QSVLTQPPSVSGAPGQRVTISCSGSRSNIGSNTVKWYQQLPGTAPKLLIYYNDQRPSGVPDRFSGSKSGTSASLAITGLQAEDEADYYCQSYDRYTHPALLFGTGTKVTVLG
notes: human IgG1 with lambda light chain
Question: For B1, which “IFN gamma IC50” value [1] is on record?
Answer: The value was 0.005 nM.

Question: And the “PHA assay IC50” value [1]?
Answer: Its value is 0.01 nM.

Question: What about the “IC50 (M), bioassay, Dog IL-12 PBMC sup” value [2] of the same binder?
Answer: Its value is 3.5e-10 M.

Question: What about the “IC50 (M), bioassay, Baboon IL-12 PBMC sup” value [3] of the same binder?
Answer: The value was 1.5e-11 M.

Question: What about the “PHA blast IC50” value [4] of the same binder?
Answer: Its value is 0.0058 nM.

Question: What about the Kd [5] of the same binder?
Answer: The Kd was 0.0974 nM.

Question: What about the Kd [6] of the same binder?
Answer: Its Kd is 0.134 nM and 0.0974 nM.

Question: What about the IC50 [7] of the same binder?
Answer: Its IC50 is 0.034 nM and 0.03 nM.

Question: What about the Kd [8] of the same binder?
Answer: Its Kd is 0.0974 nM and 0.014 µg/mL.

B2: J695 (antibody, V domains shown)
VH: B1 VH
VL: B1 VL
notes: Human IgG1 with lambda light chain (detected with anti-human lambda); Made in CHO or COS cells
Question: Does B2 bind [9]?
Answer: Result: binds
